Target: N-Ras蛋白 (UniProt P01111)
Assay: indirect ELISA; N-Ras coated at 5 ug/ml, fusion protein diluted 1:100 to 1:3200, anti-His-tag antibody then HRP goat anti-mouse IgG, OD450
Settings: scale: dilution factor

Sequence of UniProt P01111 (P01111 whole entry, the tested form may be a part): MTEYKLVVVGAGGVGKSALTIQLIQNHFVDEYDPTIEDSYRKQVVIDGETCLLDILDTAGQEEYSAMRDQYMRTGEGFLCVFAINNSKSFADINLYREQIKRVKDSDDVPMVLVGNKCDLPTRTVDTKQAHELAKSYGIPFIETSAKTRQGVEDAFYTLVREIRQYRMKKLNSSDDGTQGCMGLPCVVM

- 结合效价 (ELISA titer): 800
B1: BR2-抗p21Ras单链抗体融合蛋白 (scFv, V domains shown, not shown: small tags and cut ends)
VH: QVKLQESGEGLVKPGGSLKLSCAASGFTFSDYYMYWVRQTPEKRLEWVAIISDGGSYTYYPDSVKGRFTISRDNTKKNLYLQMSSLRSEDTAMYYCARDPHYSGSSRLFVNWGQGTTVTVSS
